One test concerns the target Human PPIA K76E mutant (human, UniProt P62937 2-165, K76E). Kind of test: NMR titration.
Test [1] addresses Human wild-type peptidylprolyl cis-trans isomerase A (PPIA) (human, UniProt P62937 2-165). Put plainly: NMR titration.

Chain of Human PPIA K76E mutant (P62937 2-165 K76E): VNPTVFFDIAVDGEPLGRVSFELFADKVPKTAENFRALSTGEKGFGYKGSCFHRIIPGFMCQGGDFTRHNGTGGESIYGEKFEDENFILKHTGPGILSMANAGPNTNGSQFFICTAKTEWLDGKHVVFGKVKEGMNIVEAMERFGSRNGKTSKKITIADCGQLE
Chain of Human wild-type peptidylprolyl cis-trans isomerase A (PPIA) (P62937 2-165): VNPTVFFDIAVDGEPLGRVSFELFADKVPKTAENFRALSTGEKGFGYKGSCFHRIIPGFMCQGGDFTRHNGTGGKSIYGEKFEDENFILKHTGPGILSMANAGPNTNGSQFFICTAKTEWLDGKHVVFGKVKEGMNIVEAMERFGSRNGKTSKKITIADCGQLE

B1: Ac-FGPDLPAGD-NH2 (peptide)
peptide: Ac-FGPDLPAGD-NH2
B1: the binding result (in the test with Human PPIA K76E mutant; in test [1]) was “binds” throughout.
